Experiment [1] addresses T1, BSK3-His (UniProt Q8W4L3 1-489).
T1 construct: BSK3, receptor-like cytoplasmic kinase of subfamily RLCK-XII, full-length cDNA in pET-28a; The species is most likely Arabidopsis thaliana, the plant of the whole study; source: E. coli BL21 (DE3), purified (Ni-NTA Agarose)
The experiment can be described thus: pull-down; GST fusion proteins on Glutathione Sepharose 4B beads, incubated with BSK1-His or BSK3-His 4-6 h at 4 °C, washed 6-8 times with His lysis buffer; blot with His and GST antibodies. The following applies: both partners purified.

For experiment [2], the target named is T2, BSK1-His (UniProt Q944A7 1-512).
T2 construct: BSK1, receptor-like cytoplasmic kinase of subfamily RLCK-XII, full-length cDNA in pET-28a; The species is most likely Arabidopsis thaliana, the plant of the whole study; source: E. coli BL21 (DE3), purified (Ni-NTA Agarose)
T2 sequence (Q944A7 whole entry): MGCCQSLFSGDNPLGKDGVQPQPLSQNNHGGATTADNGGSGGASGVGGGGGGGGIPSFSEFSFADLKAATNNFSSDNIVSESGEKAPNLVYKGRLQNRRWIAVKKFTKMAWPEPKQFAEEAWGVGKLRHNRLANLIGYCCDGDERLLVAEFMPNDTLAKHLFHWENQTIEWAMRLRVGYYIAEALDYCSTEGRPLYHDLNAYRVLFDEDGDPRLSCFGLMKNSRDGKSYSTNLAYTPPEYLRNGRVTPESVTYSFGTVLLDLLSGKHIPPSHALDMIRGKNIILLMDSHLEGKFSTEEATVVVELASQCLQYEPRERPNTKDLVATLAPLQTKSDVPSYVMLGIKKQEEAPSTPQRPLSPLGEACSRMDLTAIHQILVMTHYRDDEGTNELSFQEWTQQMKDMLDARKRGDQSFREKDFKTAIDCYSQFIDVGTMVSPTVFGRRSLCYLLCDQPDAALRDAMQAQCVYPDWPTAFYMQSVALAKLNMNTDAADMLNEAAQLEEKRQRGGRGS
The experiment is described as above. The following applies: both partners purified.

T1 sequence (Q8W4L3 whole entry): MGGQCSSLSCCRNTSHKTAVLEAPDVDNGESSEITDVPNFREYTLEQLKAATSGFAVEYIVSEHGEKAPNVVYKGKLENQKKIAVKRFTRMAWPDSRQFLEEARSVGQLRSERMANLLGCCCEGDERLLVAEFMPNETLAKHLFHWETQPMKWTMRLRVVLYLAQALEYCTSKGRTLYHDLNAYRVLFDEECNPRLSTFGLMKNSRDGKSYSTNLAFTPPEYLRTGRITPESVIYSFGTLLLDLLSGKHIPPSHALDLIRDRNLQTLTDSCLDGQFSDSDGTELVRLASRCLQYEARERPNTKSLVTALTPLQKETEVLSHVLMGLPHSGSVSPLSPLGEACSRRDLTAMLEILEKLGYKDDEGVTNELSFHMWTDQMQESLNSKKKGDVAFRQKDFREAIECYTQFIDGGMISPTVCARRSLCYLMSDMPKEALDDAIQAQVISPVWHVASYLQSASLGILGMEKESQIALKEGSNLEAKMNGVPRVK

B1: GST-EMS1-CD (domain or fragment, Arabidopsis thaliana, UniProt Q9LYN8 849-1192, looked up)
chain: RRWAMTKRVKQRDDPERMEESRLKGFVDQNLYFLSGSRSREPLSINIAMFEQPLLKVRLGDIVEATDHFSKKNIIGDGGFGTVYKACLPGEKTVAVKKLSEAKTQGNREFMAEMETLGKVKHPNLVSLLGYCSFSEEKLLVYEYMVNGSLDHWLRNQTGMLEVLDWSKRLKIAVGAARGLAFLHHGFIPHIIHRDIKASNILLDGDFEPKVADFGLARLISACESHVSTVIAGTFGYIPPEYGQSARATTKGDVYSFGVILLELVTGKEPTGPDFKESEGGNLVGWAIQKINQGKAVDVIDPLLVSVALKNSQLRLLQIAMLCLAETPAKRPNMLDVLKALKEI
notes: EXCESS MICROSPOROCYTES1 (EMS1) LRR receptor-like kinase, Arabidopsis thaliana, cytoplasmic domain, residues 849-1192, cloned into pGEX-4T-3; also called cytoplasmic domain of EMS1; EMS1 kinase domain; source: E. coli BL21 (DE3), purified (Glutathione Sepharose 4B)
As to B1, the binding result in experiment [1] and in experiment [2] was “binds” each time.

B2: GST-BRI1-CD (domain or fragment, Arabidopsis thaliana, UniProt O22476 814-1196, looked up)
chain: GREMRKRRRKKEAELEMYAEGHGNSGDRTANNTNWKLTGVKEALSINLAAFEKPLRKLTFADLLQATNGFHNDSLIGSGGFGDVYKAILKDGSAVAIKKLIHVSGQGDREFMAEMETIGKIKHRNLVPLLGYCKVGDERLLVYEFMKYGSLEDVLHDPKKAGVKLNWSTRRKIAIGSARGLAFLHHNCSPHIIHRDMKSSNVLLDENLEARVSDFGMARLMSAMDTHLSVSTLAGTPGYVPPEYYQSFRCSTKGDVYSYGVVLLELLTGKRPTDSPDFGDNNLVGWVKQHAKLRISDVFDPELMKEDPALEIELLQHLKVAVACLDDRAWRRPTMVQVMAMFKEIQAGSGIDSQSTIRSIEDGGFSTIEMVDMSIKEVPEGKL
notes: BRASSINOSTEROID … 1 (BRI1) LRR receptor-like kinase, Arabidopsis thaliana, cytoplasmic domain, residues 814-1196, cloned into pGEX-4T-3; also called cytoplasmic domain of BRI1; source: E. coli BL21 (DE3), purified (Glutathione Sepharose 4B)
On to B2, for which the binding result in experiment [1] and in experiment [2] was “binds” each time.
